US20100143379A1 (priority 2005, published 2010)

Tested on: Src
Test: Tyrosine kinase phosphorylation in COS-7/M6 transformants and MEFs (immunoblot)
Format: cell-based
Details: COS-7 transformants and MEFs
From the text: Two members of the non-receptor, protein tyrosine kinase family, p56^lck and c-Src (Src), may physically associate with the intracytoplasmic domain of CD44 (Elaimin I. Taher (1996). J. Biol. Chem. 271:2863-2867 and Bourguignon et al. (2001). J. Biol. Chem. 276:7327-7336), and either kinase may lead to downstream ERK1/2 phosphorylation via a Ras-Raf-MEK-dependent pathway (Ishida et al. (1998). Circ Res 82:7-12; Migliaccio et al. (2000). EMBO J. 19:5406-5417; and Mahabeleshwar et al. (2003). J. Biol. Chem. 278:52598-52612). […] The level of p56^lck phosphorylation appeared less in the MEFs than in the COS-7 cells, which may be attributed to the lower level of expression of the p56^lck kinase in cells of fibroblast lineage (Oikawa et al. (2001). Immunol. 104:162-167), or to a higher activation and coupling efficiency of CD44 when over-expressed in COS-7 cells.
Signal Transduction Assays. […] The human CD74 ectodomain (CD74^73-232) was prepared recombinantly in soluble form (sCD74) as described previously (Leng et al. (2003). J Exp Med 197:1467-1476). […] Cells then were harvested and lysed in buffer containing 50 mM Hepes, pH7.5, 150 mM NaCl, 1.5 mM MgCl2, 1 mM EGTA, 1% Glycerol and 1% Triton X-100, and freshly added phosphatase and proteinase inhibitors (1 mM orthovanandate, 10 mM NaF, 10 μg/ml leupeptin, 25 μg/ml aprotinin and 50 μg/ml PMSF). […]

B1: MIF: macrophage migration inhibitory factor; recombinant mouse or human MIF purified essentially free of endotoxin (protein)
chain: PMFIVNTNVPRASVPDGFLSELTQQLAQATGKPPQYIAVHVVPDQLMAFGGSSEPCALCSLHSIGKIGGAQNRSYSKLLCGLLAERLRISPDRVYINYYDMNAANVGWNNSTFA
Src phosphorylation: An increase in the phosphorylation of the Src kinase was not detected
